Measured values from US20240409645A1 (DUALYX, published 2024).

T1: human IL-2 receptor (IL-2Rα/IL-2Rβ/γc) (human, UniProt P01589 22-272; P14784 27-551; P31785 23-369)
T1 sequence 1: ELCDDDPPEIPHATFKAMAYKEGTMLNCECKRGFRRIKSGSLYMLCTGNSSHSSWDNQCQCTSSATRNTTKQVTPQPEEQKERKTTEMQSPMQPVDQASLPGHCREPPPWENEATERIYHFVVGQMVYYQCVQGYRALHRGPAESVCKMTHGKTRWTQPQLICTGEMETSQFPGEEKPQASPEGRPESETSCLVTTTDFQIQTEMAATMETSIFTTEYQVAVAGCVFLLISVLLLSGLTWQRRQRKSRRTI
T1 sequence 2: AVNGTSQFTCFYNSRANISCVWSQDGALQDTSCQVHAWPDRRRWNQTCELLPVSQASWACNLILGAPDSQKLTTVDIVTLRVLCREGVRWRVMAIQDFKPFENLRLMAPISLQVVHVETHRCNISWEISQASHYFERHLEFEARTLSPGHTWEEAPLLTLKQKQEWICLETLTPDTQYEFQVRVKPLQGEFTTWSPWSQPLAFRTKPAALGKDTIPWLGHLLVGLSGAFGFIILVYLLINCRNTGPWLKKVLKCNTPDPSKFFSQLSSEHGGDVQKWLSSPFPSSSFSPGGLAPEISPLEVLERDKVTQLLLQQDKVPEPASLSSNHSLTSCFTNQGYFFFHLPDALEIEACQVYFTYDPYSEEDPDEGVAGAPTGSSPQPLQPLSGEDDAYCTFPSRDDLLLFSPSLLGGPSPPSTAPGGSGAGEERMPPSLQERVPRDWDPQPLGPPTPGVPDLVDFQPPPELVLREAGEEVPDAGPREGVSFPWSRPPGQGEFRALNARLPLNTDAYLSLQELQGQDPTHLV
T1 sequence 3: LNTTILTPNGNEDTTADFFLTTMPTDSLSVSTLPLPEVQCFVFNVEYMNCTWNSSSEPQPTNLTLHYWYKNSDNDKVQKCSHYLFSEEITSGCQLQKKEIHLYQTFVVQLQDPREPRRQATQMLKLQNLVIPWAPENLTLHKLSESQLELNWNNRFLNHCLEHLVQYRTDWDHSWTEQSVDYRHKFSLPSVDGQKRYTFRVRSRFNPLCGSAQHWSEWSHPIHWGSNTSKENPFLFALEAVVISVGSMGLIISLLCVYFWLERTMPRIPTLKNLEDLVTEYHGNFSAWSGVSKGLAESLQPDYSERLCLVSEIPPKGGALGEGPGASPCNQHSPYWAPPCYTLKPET

B1: DC00053 (other)
chain 1: QVQLVESGGGLVQPGGSLRLSCATSGFTFRNNFMSWVRQAPGKGLEWVSTISYGGESTTYAESVKGRFTISRDNAKNTLYLQMNNLKPEDTAVYYCAKATSYDSIRSGSRGQGTQVTVSSGGGGSGGGGSGGGGSEVQLVESGGGLVQTGGSLRLSCAASGGTFSRDAMAWFRQVPGKEREFVALISWSGATTNYADSVKGRFAISRDNGKNTVYLQMNRLKPADTAIYYCAADRRPMGSRSYFEPTEYDDWGQGTQVTVSSGGGGSGGGGSGGGGSDKTHTCPPCPAPEAAGGPSVFLFPPKPKDTLMISRTPEVTCVVVDVSHEDPEVKFNWYVDGVEVHNAKTKPREEQYNSTYRVVSVLTVLHQDWLNGKEYKCKVSNKALGAPIEKTISKAKGQPREPQVYTLPPSRDELTKNQVSLTCLVKGFYPSDIAVEWESNGQPENNYKTTPPVLDSDGSFLLYSKLTVDKSRWQQGNVFSCSVMHEALHNHYTQKSLSLSPGK
chain 2: EVQLVESGGGLVQTGGSLRLSCAASGGTFSRDAMAWFRQVPGKEREFVALISWSGATTNYADSVKGRFAISRDNGKNTVYLQMNRLKPADTAIYYCAADRRPMGSRSYFEPTEYDDWGQGTQVTVSSGGGGSGGGGSGGGGSQVQLVESGGGLVQPGGSLRLSCATSGFTFRNNFMSWVRQAPGKGLEWVSTISYGGESTTYAESVKGRFTISRDNAKNTLYLQMNNLKPEDTAVYYCAKATSYDSIRSGSRGQGTQVTVSSGGGGSGGGGSGGGGSQVQLVESGGGLVQAGGSLTLSCAAPGRTFGTDVVGWFRQAPGKEREFVASISRSGDGIYYDDSVKGRFTISRNNAWNTVNLQMNSLKVEDTAVYYCAAGDGWSTYDYWGQGTQVTVSSGGGGSGGGGSGGGGSDKTHTCPPCPAPEAAGGPSVFLFPPKPKDTLMISRTPEVTCVVVDVSHEDPEVKFNWYVDGVEVHNAKTKPREEQYNSTYRVVSVLTVLHQDWLNGKEYKCKVSNKALGAPIEKTISKAKGQPREPQVYTLPPSRDELTKNQVSLTCLVKGFYPSDIAVEWESNGQPENNYKTTPPVLDSDGSFFLYSRLTVDKSRWQQGNVFSCSVMHEALHNHYTQKSLSLSPGK
B2: DC00059 (other)
chain 1: B1 chain 1
chain 2: QVQLVESGGGLVQAGGSLTLSCAAPGRTFGTDVVGWFRQAPGKEREFVASISRSGDGIYYDDSVKGRFTISRNNAWNTVNLQMNSLKVEDTAVYYCAAGDGWSTYDYWGQGTQVTVSSGGGGSGGGGSGGGGSQVQLVESGGGLVQPGGSLRLSCATSGFTFRNNFMSWVRQAPGKGLEWVSTISYGGESTTYAESVKGRFTISRDNAKNTLYLQMNNLKPEDTAVYYCAKATSYDSIRSGSRGQGTQVTVSSGGGGSGGGGSGGGGSEVQLVESGGGLVQTGGSLRLSCAASGGTFSRDAMAWFRQVPGKEREFVALISWSGATTNYADSVKGRFAISRDNGKNTVYLQMNRLKPADTAIYYCAADRRPMGSRSYFEPTEYDDWGQGTQVTVSSGGGGSGGGGSGGGGSDKTHTCPPCPAPEAAGGPSVFLFPPKPKDTLMISRTPEVTCVVVDVSHEDPEVKFNWYVDGVEVHNAKTKPREEQYNSTYRVVSVLTVLHQDWLNGKEYKCKVSNKALGAPIEKTISKAKGQPREPQVYTLPPSRDELTKNQVSLTCLVKGFYPSDIAVEWESNGQPENNYKTTPPVLDSDGSFFLYSRLTVDKSRWQQGNVFSCSVMHEALHNHYTQKSLSLSPGK
B3: DC00057 (other)
chain 1: B1 chain 1
chain 2: QVQLVESGGGLVQPGGSLRLSCATSGFTFRNNFMSWVRQAPGKGLEWVSTISYGGESTTYAESVKGRFTISRDNAKNTLYLQMNNLKPEDTAVYYCAKATSYDSIRSGSRGQGTQVTVSSGGGGSGGGGSGGGGSEVQLVESGGGLVQTGGSLRLSCAASGGTFSRDAMAWFRQVPGKEREFVALISWSGATTNYADSVKGRFAISRDNGKNTVYLQMNRLKPADTAIYYCAADRRPMGSRSYFEPTEYDDWGQGTQVTVSSGGGGSGGGGSGGGGSQVQLVESGGGLVQAGGSLTLSCAAPGRTFGTDVVGWFRQAPGKEREFVASISRSGDGIYYDDSVKGRFTISRNNAWNTVNLQMNSLKVEDTAVYYCAAGDGWSTYDYWGQGTQVTVSSGGGGSGGGGSGGGGSDKTHTCPPCPAPEAAGGPSVFLFPPKPKDTLMISRTPEVTCVVVDVSHEDPEVKFNWYVDGVEVHNAKTKPREEQYNSTYRVVSVLTVLHQDWLNGKEYKCKVSNKALGAPIEKTISKAKGQPREPQVYTLPPSRDELTKNQVSLTCLVKGFYPSDIAVEWESNGQPENNYKTTPPVLDSDGSFFLYSRLTVDKSRWQQGNVFSCSVMHEALHNHYTQKSLSLSPGK
B4: DC00055 (other)
chain 1: B1 chain 1
chain 2: QVQLVESGGGLVQPGGSLRLSCATSGFTFRNNFMSWVRQAPGKGLEWVSTISYGGESTTYAESVKGRFTISRDNAKNTLYLQMNNLKPEDTAVYYCAKATSYDSIRSGSRGQGTQVTVSSGGGGSGGGGSGGGGSQVQLVESGGGLVQAGGSLTLSCAAPGRTFGTDVVGWFRQAPGKEREFVASISRSGDGIYYDDSVKGRFTISRNNAWNTVNLQMNSLKVEDTAVYYCAAGDGWSTYDYWGQGTQVTVSSGGGGSGGGGSGGGGSEVQLVESGGGLVQTGGSLRLSCAASGGTFSRDAMAWFRQVPGKEREFVALISWSGATTNYADSVKGRFAISRDNGKNTVYLQMNRLKPADTAIYYCAADRRPMGSRSYFEPTEYDDWGQGTQVTVSSGGGGSGGGGSGGGGSDKTHTCPPCPAPEAAGGPSVFLFPPKPKDTLMISRTPEVTCVVVDVSHEDPEVKFNWYVDGVEVHNAKTKPREEQYNSTYRVVSVLTVLHQDWLNGKEYKCKVSNKALGAPIEKTISKAKGQPREPQVYTLPPSRDELTKNQVSLTCLVKGFYPSDIAVEWESNGQPENNYKTTPPVLDSDGSFFLYSRLTVDKSRWQQGNVFSCSVMHEALHNHYTQKSLSLSPGK
B5: DC00058 (other)
chain 1: B1 chain 1
chain 2: QVQLVESGGGLVQAGGSLTLSCAAPGRTFGTDVVGWFRQAPGKEREFVASISRSGDGIYYDDSVKGRFTISRNNAWNTVNLQMNSLKVEDTAVYYCAAGDGWSTYDYWGQGTQVTVSSGGGGSGGGGSGGGGSEVQLVESGGGLVQTGGSLRLSCAASGGTFSRDAMAWFRQVPGKEREFVALISWSGATTNYADSVKGRFAISRDNGKNTVYLQMNRLKPADTAIYYCAADRRPMGSRSYFEPTEYDDWGQGTQVTVSSGGGGSGGGGSGGGGSQVQLVESGGGLVQPGGSLRLSCATSGFTFRNNFMSWVRQAPGKGLEWVSTISYGGESTTYAESVKGRFTISRDNAKNTLYLQMNNLKPEDTAVYYCAKATSYDSIRSGSRGQGTQVTVSSDKTHTCPPCPAPEAAGGPSVFLFPPKPKDTLMISRTPEVTCVVVDVSHEDPEVKFNWYVDGVEVHNAKTKPREEQYNSTYRVVSVLTVLHQDWLNGKEYKCKVSNKALGAPIEKTISKAKGQPREPQVYTLPPSRDELTKNQVSLTCLVKGFYPSDIAVEWESNGQPENNYKTTPPVLDSDGSFFLYSRLTVDKSRWQQGNVFSCSVMHEALHNHYTQKSLSLSPGK

target: T1, human IL-2 receptor (IL-2Rα/IL-2Rβ/γc); test: cell-based or functional assay

| Binder | EC50 (nM) pSTAT5, NK, human PBMCs | EC50 (nM) pSTAT5, Treg, human PBMCs | Fold Max signal (% pSTAT5+) Treg/NK | Max signal (% pSTAT5+), NK | Max signal (% pSTAT5+), Treg | fold EC50 NK/Treg |
| --- | --- | --- | --- | --- | --- | --- |
| B1 | 0.057 nM | 0.488 pM | 7 fold | 13 % pSTAT5+ | 84 % pSTAT5+ | 117 fold |
| B2 | 0.0401 nM | 0.252 pM | 6 fold | 14 % pSTAT5+ | 86 % pSTAT5+ | 159 fold |
| B3 | 0.548 nM | 0.00208 nM | 5 fold | 19 % pSTAT5+ | 89 % pSTAT5+ | 263 fold |
| B4 | 0.889 nM | < 0.1 pM | 3 fold | 34 % pSTAT5+ | 97 % pSTAT5+ | > 8890 fold |
| B5 | 1.87 nM | 0.0025 nM | 3 fold | 34 % pSTAT5+ | 97 % pSTAT5+ | 748 fold |
